The values that follow come from paper PMC8503523, “Lilium regale Wilson WRKY2 Regulates Chitinase Gene Expression During the Response to the Root Rot Pathogen Fusarium oxysporum”.

In series [1] the target is T1, LrWRKY2 (Lilium regale Wilson, UniProt A0A894THB0 1-343).
T1 sequence: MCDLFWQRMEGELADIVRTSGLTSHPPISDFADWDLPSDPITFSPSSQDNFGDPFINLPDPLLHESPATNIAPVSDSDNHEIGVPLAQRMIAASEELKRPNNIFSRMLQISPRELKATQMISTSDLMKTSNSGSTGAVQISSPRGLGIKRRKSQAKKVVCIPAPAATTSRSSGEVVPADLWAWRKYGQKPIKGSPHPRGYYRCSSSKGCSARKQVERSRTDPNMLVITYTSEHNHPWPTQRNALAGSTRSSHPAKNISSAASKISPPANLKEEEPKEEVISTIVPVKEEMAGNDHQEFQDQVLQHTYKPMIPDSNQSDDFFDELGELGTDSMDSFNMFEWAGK
As to the kind of experiment: EMSA; 0.5 ug protein in 20 uL with 7 uL binding buffer (as printed: 100 mM Tris, 500 mM KCl, 10 mM DTT, 50% glycerol, 100 mM MgCl2, 1% NP-40, 1 M KCl, 200 mM EDTA, 1). The note with it: protein: recombinant, tags: His (pET-32a fusion). A general note: Mobility shift assays separate free from complexed probe on a gel.

Series [2] deals with T1, LrWRKY2. The series is described as follows: competition EMSA; 50-fold excess over biotin-labeled N1; shift less intense; 0.5 ug protein in 20 uL with 7 uL binding buffer (as printed: 100 mM Tris, 500 mM KCl, 10 mM DTT, 50% glycerol, 100 mM MgCl2, 1% NP-40, 1 M KCl, 200 mM EDTA, 1). The note with it: protein: recombinant; tags: His (pET-32a fusion); (only one strand printed; duplex implied by 50-bp).

B1: LrCHI2 promoter W-box probe (dsDNA)
DNA 1: GGCAAACTTTTAGGCCAAGAGATTGACTAGAACCCTCACAATCTCTATAT
DNA 2: ATATAGAGATTGTGAGGGTTCTAGTCAATCTCTTGGCCTAAAAGTTTGCC
On to B1, for which the binding result in the series with LrWRKY2 [1] ((only one strand printed; duplex implied by 50-bp)) is “binds”.

B2: LrCHI2 promoter mutant W-box probe (dsDNA)
DNA 1: GGCAAACTTTTAGGCCAAGAGATTACCTAGAACCCTCACAATCTCTATAT
DNA 2: ATATAGAGATTGTGAGGGTTCTAGGTAATCTCTTGGCCTAAAAGTTTGCC
For the molecule B2, in the series with LrWRKY2 [1], the binding result is listed as “no binding”.

B3: LrCHI2 promoter W-box competitor, unlabeled (dsDNA)
DNA 1: GGCAAACTTTTAGGCCAAGAGATTGACTAGAACCCTCACAATCTCTATAT
DNA 2: ATATAGAGATTGTGAGGGTTCTAGTCAATCTCTTGGCCTAAAAGTTTGCC
For B3, in the series with LrWRKY2 [2], the binding result is given as “binds”.
